From US20250333441A1, “POLYPEPTIDE INHIBITORS AND USES THEREOF” (Neuracle Science Co., Ltd., priority 2021, published 2025)

Columns and labels:
[1] = target: T1, FAM19A5 (isoform 2) - full-length LRRC4B protein complex (Homo sapiens, UniProt Q7Z5A7); test: Immunofluorescence: dissociation of FAM19A5 from full-length LRRC4B in HEK293 cells; assay type: cell-based; conditions: HEK293 cells expressing FAM19A5 isoform 2 and LRRC4B, treated 30 minutes
T1 construct: expressed in transfected cells; host or cells: HEK293
Method: Since LRRC4B protein fragments containing the binding domain described in Example 2 (e.g., LRRC4B (453-576); i.e., construct #11 in Table 6) was able to bind to FAM19A5 protein with high affinity, it was next assessed whether such protein fragments could compete with naturally existing LRRC4B protein for binding to FAM19A5 protein, and thereby, dissociate the FAM19A5-LRRC4 protein family complex. Briefly, HEK293 cells expressing both FAM19A5 isoform 2 and LRRC4B protein were treated (i.e., cultured in vitro) for 30 minutes with either LRRC4B (453-576)-hFc or mutant LRRC4B (453-576)-hFc (includes alanine substitutions at positions 488 and 489 of SEQ ID NO: 2; SEQ ID NO: 16) protein fragments. Then, the cells were immunostained with anti-FAM19A5 (1-65) and anti-LRRC4B antibodies to determine the expression of FAM19A5 and full-length LRRC4B proteins, respectively. The hFc-fused LRRC4B protein fragments were determined using an anti-hIgG antibody. The nuclei were stained with Hoechst 33342.

[2] = target: binding of FAM19A5 protein to full-length ectodomain of the LRRC4B protein (amino acids 36-576)-hFc (Homo sapiens, UniProt Q7Z5A7); test: Competitive inhibition assay, plate coated with full-length LRRC4B ectodomain; conditions: 100 nM coated ectodomain; FAM19A5 5 ng/mL; increasing concentrations
Method: Next, to further assess the role that the binding domain of the LRRC4B protein has on the interaction between FAM19A5 protein and members of the LRRC4 protein family, a competitive inhibition assay was used to determine whether different LRRC4B deletion constructs from Example 2 could inhibit the binding of FAM19A5 to the full-length ectodomain of the LRRC4B protein (i.e., amino acids 36-576 of SEQ ID NO: 2; SEQ ID NO: 5). Briefly, 100 nM of the full-length ectodomain of the LRRC4B protein was used to coat a plate, and then recombinant FAM19A5 protein (5 ng/mL) was added to the plate in combination with the following LRRC4B deletion constructs (increasing concentrations): (1) LRRC4B (453-576) (i.e., construct #11 in Table 6); (2) LRRC4B (453-576) mutant (comprises alanine substitutions at positions 488 and 489 of SEQ ID NO: 2; SEQ ID NO: 16); (3) LRRC4B (484-576) (i.e., construct #12 in Table 6); (4) LRRC4B (482-576); (5) LRRC4B (482-497); and (6) LRRC4B (498-576). The plates were incubated at 37° C., and then, the amount of FAM19A5 bound to the coated LRRC4B ectodomain protein was measured using H1RP-conjugated anti-FAM19A5 (1-65) antibody. […]

[3] = test system: mouse primary cortical neurons; test: Neurite growth of primary cortical neurons (beta-tubulin III immunostaining); assay type: cell-based; conditions: 0.006 to 60 nM; day 3 post-initial culture; versus DMSO control
Method: Next, primary cortical neurons (day 1 postnatal) were cultured in vitro with varying concentrations (0.006 to 60 nM) of the LRRC4B (453-576) protein fragment (i.e., amino acid residues 453-576 of SEQ ID NO: 2; SEQ ID NO: 7), and then at day 3 post-initial culture, the effect on neurite growth was assessed by immunostaining the cells with anti-beta-tubulin III antibody. Cells cultured with DMSO (“Veh”) were used as control.
Mouse hippocampal neurons were treated with LRRC4B peptides at 1 and 2 DIV to determine neurite growth. It was measured by using 3 different parameters, which are total neurites length, number of primary and secondary neurites. After the neurons were stained with beta-tubulin III at 3 DIV, neurites length and branch points were measured using Fiji (Image J, NIH, Bethesda). Individual neurons were selected by hand and these parameters were counted using the Simple neurite tracer plugin. Mouse spinal motor neurons sampled at postnatal day 1 were treated with 10 nM of NS101 and LRRC4B-peptides (dFB-dWY-JM31 and dFB-DY-JM31) at 1 and 2 DIV and immunostained with Tau-5 antibody at 3 DIV. Total neurite length and number of somas in images were measured by Neurphology Image J plugin.

[4] = test system: mouse primary hippocampal neurons; test: Synapse formation (SYP, PSD95) in primary hippocampal neurons; assay type: cell-based; conditions: 6 or 60 nM
Method: Next, it is generally known that neurites that outgrow from other neurites are capable of differentiating into axons, forming presynapses. Other neurites remain minor neurites and differentiate into dendrites, forming postsynapses. Therefore, whether the LRRC4B (453-576) protein fragment can also affect pre- and post-synaptic formation was also assessed. Briefly, mouse primary hippocampal neurons were cultured in vitro with the LRRC4B (453-576) protein fragment (6 or 60 nM). Control cells were treated with either DMSO (“Veh”) or the mutant LRRC4B (453-576) protein fragment which is not capable of binding to FAM19A5 protein (comprises alanine substitutions at positions 488 and 489). Then, at days 3 and 6 post initial culture, the expression level of synaptophysin (SYP; a presynaptic marker) was assessed. At day 7 post initial culture, the expression level of postsynaptic density 95 (PSD95; a postsynaptic marker) was assessed.
Primary hippocampal neurons were prepared from postnatal pups (postnatal day 1) of C57BL/6 (Nara Biotech, Seoul, Korea) as previously described by Beaudoin et al., Nature protocols 7(9): 1741-1754 (2012), which is incorporated herein by reference in its entirety. Briefly, cortices were dissected in Hank's buffered salt solution (HBSS) (Invitrogen, Carlsbad, CA, USA) and digested with 2.5% trypsin for 15 min at 37° C. […]

Sequence of binding of FAM19A5 protein to full-length ectodomain of the LRRC4B protein (amino acids 36-576)-hFc (Q7Z5A7 44-132): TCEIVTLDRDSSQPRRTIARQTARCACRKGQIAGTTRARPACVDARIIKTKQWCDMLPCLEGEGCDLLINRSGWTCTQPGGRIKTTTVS
T1 sequence (Q7Z5A7 1-125 isoform Q7Z5A7-2, one chain of several): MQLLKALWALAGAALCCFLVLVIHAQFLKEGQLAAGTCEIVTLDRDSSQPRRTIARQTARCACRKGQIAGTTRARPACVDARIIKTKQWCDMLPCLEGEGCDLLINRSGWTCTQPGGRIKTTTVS

B1: LRRC4B (453-576): LRRC4B fragment, amino acids 453-576 of SEQ ID NO: 2 (SEQ ID NO: 7); used hFc-fused (protein)
chain: VSAVDPVAAGGTGSGGGGPGGSGGVGGGSGGYTYFTTVTVETLETQPGEEALQPRGTEKEPPGPTTDGVWGGGRPGDAAGPASSSTTAPAPRSSRPTEKAFTVPITDVTENALKDLDDVMKTTK
modifications: human Fc fusion in use
notes: used hFc-fused
dissociation of FAM19A5 from full-length LRRC4B protein [1]: FAM19A5 was largely dissociated from the full-length LRRC4B protein | inhibition of FAM19A5 binding to coated full-length LRRC4B ectodomain protein [2]: able to inhibit FAM19A5 protein from binding | neurite growth [3]: increased neurite growth in a dose-dependent manner | number of puncta colabeled with SYP and PSD95 [4]: increased number of puncta
